Where a chain is given by its changes, count along the chain named.
B1: anti-ROR1 antibody clone C3 (antibody, V domains shown)
VH: QVQLQESGPGLVKPSETLSLTCTVSGGSISSYYWSWIRQLPGKGLEWIGYMHYSGSTSYNPSLKGRLTISVDTSTNQFSLKLGSVTAADTAVYYCARYYYHDSSGYYSYFDYWGQGTLVTVSS
VL: EIVLTQSPGTLSLSPGERATLSCRASQSVSSYLAWYQQKAGQAPRLLIYDASNRASGIPARFSGSGSGTDFTLTISSLEPEDFAVYYCQQRSNWPPTFGGGTKVEIK
notes: also called anti-ROR1 (clone C3)
B2: anti-ROR1 antibody clone G3 (antibody, V domains shown)
VH: QVQLQQWGAGLLKPSETLSLTCAVYGGSFSGYYWSWIRQPPGKGLEWIGEINHSGSTSYNPSLKSRVTISVDTSKNQFSLKLSSVTAADTAVYYCARGHSSGWYRRYFDLWGRGTLVTVSS
VL: B1 VL with G9A, A40P, S56T, R61K
B3: anti-ROR1 antibody clone G6 (antibody, V domains shown)
VH: EVQLVESGGGVVQPGGSLRLSCAASGFTFDDYAMHWVRQAPGKGLEWVSLISGDGGSTYYADSVKGRFTISRDNAKNSLYLQMNSLRAEDTAVYYCARDNWNDVYYYYGMDVWGQGTTVTVSS
VL: DIQLTQSPSSLSASIGDTVTISCQASRDISDYLNWYQHKPGKAPKLLIYDASNLATGVPSRFSGSGSGTDFTLTIKSLQPEDVATYFCQQDDLLPLTFGGGTKVDIK

Biological target: T1, human ROR1 expressed on CHO-K1 cells (human, UniProt Q01973 30-937)
T1 construct: whole, on cells; also called CHO-K1-ROR1
T1 sequence (Q01973 30-937): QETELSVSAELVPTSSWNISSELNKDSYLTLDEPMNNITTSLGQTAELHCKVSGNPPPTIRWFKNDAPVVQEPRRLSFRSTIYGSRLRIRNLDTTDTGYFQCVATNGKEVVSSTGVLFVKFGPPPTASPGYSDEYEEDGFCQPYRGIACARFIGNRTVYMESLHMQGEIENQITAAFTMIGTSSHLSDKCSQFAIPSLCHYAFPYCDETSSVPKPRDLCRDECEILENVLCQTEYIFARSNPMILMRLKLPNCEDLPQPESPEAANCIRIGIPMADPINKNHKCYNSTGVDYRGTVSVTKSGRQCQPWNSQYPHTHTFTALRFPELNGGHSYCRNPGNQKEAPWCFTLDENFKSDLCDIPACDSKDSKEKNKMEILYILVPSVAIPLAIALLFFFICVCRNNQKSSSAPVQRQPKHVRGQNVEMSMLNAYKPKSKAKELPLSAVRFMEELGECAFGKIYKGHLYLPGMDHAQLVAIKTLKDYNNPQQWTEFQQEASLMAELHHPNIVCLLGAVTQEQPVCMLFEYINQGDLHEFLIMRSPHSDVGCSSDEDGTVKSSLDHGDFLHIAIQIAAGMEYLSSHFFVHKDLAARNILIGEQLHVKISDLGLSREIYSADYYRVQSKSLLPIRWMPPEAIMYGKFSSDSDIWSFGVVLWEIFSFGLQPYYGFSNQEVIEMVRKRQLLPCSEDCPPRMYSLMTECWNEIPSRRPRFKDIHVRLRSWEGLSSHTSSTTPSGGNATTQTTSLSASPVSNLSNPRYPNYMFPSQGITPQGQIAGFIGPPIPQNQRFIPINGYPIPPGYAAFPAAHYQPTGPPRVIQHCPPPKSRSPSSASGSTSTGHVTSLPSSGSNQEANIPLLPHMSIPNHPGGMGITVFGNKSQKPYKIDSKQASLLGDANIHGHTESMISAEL
Test: flow cytometry on CHO-K1-ROR1 cells, PE anti-human IgG-Fc
Procedure: CHO-K1 cell line was transduced with lentivector carrying human ROR1. CHO-K1-ROR1 cells were resuspended in FACS buffer and Fc receptors were blocked prior to incubation with purified ROR1 mAbs. 5×10⁵ cells in 100 μL FACS buffer were aliquoted to separate tubes and the purified mAb was added. Antibody concentration is from about 30 μg/mL to about 0.000508 μg/mL. Cells were incubated at 4 degrees for 1 hour, then washed twice with excess FACS buffer. Cells were resuspended in 100 μL FACS buffer and 0.5 μg of anti-human IgG-Fc (PE) secondary antibody (ab98596) was added to samples, incubated for 30 minutes and washed twice with excess FACS buffer.

binding result | Binder
binds | B1
binds | B2
binds | B3

Biological target: T2, Human ROR1-ECD (human, UniProt Q01973 30-406)
T2 construct: extracellular domain; Analyte in the Fortebio Octet assay; also called ROR1-derived extracellular domain fragment
T2 sequence (Q01973 30-406): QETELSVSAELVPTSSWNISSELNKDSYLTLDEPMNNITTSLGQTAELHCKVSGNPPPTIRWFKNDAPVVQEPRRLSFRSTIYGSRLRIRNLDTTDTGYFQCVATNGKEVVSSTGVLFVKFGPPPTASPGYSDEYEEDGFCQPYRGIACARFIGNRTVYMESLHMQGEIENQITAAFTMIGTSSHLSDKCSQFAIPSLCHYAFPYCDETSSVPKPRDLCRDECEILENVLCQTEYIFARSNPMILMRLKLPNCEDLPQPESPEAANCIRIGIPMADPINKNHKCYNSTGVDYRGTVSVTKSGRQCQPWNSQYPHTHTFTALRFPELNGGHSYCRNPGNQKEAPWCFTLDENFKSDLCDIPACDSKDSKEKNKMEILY
Test: BLI (Fortebio Octet RED96), mAb on AHC biosensor, human ROR1-ECD as analyte
Procedure: Human ROR1-ECD was diluted in KB buffer (0.1% BSA, 0.05% Tween 20, 1×PBS, pH 7.4) to various concentrations (from about 500 nM to about 62.5 nM), and the mAb was also diluted in KB buffer to 10 μg/mL. The mAb was loading to anti-hIgG Fc Capture (AHC) Biosensors (PALL, Fortebio), and the diluted Human ROR1-ECD was associated with Mab, then dissociated in KB buffer. Association (k-on) and dissociation (k-off) rate constants were calculated based on a 1:1 Langmuir binding model using Fortebio Date Analysis 7.1 software (PALL, Fortebio).

binding result | Binder
binds | B1
binds | B2
binds | B3

Source: patent US20220356246A1 (NANJING IMMUNOPHAGE BIOTECH, published 2022)
